# Test results: the supplement of paper PMC12042874
# ± gives the uncertainty stated by the source.
# Experiment: amyloid nucleation score (Sup35N fusion, yeast selection) (log enrichment); library NNK3; higher = more nucleation; inactive = no reads after selection
# Method in brief: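 For the nucleation score, DiMSum gave the log enrichment of output over input reads, centred on the mode score of non-aggregating sequences. Psi-negative yeast expressing Sup35N fused to peptides of 20 random codons were induced with 100 μM copper sulfate for 24 hours and grown 7 days at 30°C on medium lacking adenine and uracil. Input and output plasmid inserts were Illumina-sequenced, and sequences with under 100 input reads were excluded.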
row,Substance,amyloid nucleation score
1,NQVRVSKSVNRAIDASPEWD,inactive
2,NQYQSLSRRCSAGALGALVV,inactive
3,NRATVYMTQAKGCCSALFQV,0.315 ± 0.3
4,NRAVQRFCCDFNAPHIPFR,inactive
5,NRFINASNS,inactive
6,NRFQLVSRYAWHSWVK,inactive
7,NRIVQAFPSIGGFATNVCLC,inactive
8,NRMLNYIFDTTS,inactive
9,NRNFYGL,inactive
10,NRPLNIAAVLY,inactive
11,NRRVCYSLISMGIVLVCRYG,0.306 ± 0.22
12,NRSRNMESVRDSLLSVVNRE,inactive
13,NRTRCGDYILGCQSSFDTCH,inactive
14,NRVSGALKPLVVS,inactive
15,NSCYTASCS,-0.381 ± 0.63
16,NSFFKGGWMHPG,inactive
17,NSGLSIVWDWLDCFSGMKYS,inactive
18,NSHWWCSGFVSVVKIVAEFG,1.23 ± 0.1
19,NSIAYMVWILALDCCNWGSQ,2.85 ± 0.07
20,NSLVGLVCKTGSSFTRNKVV,-0.104 ± 0.75
21,NSMYYPYQVVRWLVDWHVIR,inactive
22,NSNYSVG,inactive
23,NSRLFAYKLKLVV,inactive

row,Substance,amyloid nucleation score
1,NSRNLR,inactive
2,NSRSKNWGLVFPSNRGLVS,inactive
3,NSSCSCTCLLSGHRHTP,0.829 ± 0.24
4,NSTFRFTVTRFCIAPSEYIG,0.509 ± 0.25
5,NSVRLFKNFQWWAFSRHSRL,inactive
6,NSWRHKMMQMKSYHSNVCIW,inactive
7,NSYMHGQDF,inactive
8,NTCMQPCLSRVCFELDVGCR,inactive
9,NTDFYVVVDRIMFRLLHGFK,inactive
10,NTDPTQVFQASN,inactive
11,NTFCGVEISSYIGAARKCLK,inactive
12,NTGCSDNFESFCLKATVHWV,inactive
13,NTHMRAIMNPLDVSVPRPHK,inactive
14,NTNVVSDYIHHAF,inactive
15,NTSISGSSM,inactive
16,NTVNWSFFVMVLSFSSRETV,inactive
17,NTYDAVISIACVSHQSICST,inactive
18,NVAAISGILYSLLTFFLSGG,inactive
19,NVHMMC,inactive
20,NVINSMGLSKQIIPSQVQSS,inactive
21,NVIRISICRSMRMGLKGCIF,0.732 ± 0.19
22,NVLFRMTRHAYSKLTWLFKR,inactive
23,NVNVNAFKMSLELRAR,inactive

row,Substance,amyloid nucleation score
1,NVRGNNLSRM,inactive
2,NVRWLFLAVSCQL,inactive
3,NVYELIDCGLTYQVYSYGSR,0.611 ± 0.24
4,NVYLKLTA,inactive
5,NVYMHAMCRWDVQGTAR,inactive
6,NVYTPSIFACWSLCEGFFGI,2.2 ± 0.063
7,NVYVSSRVYISK,2.88 ± 0.06
8,NWLDWYYPYLKMVIATGFND,inactive
9,NWNYLISMRGFTEYGESFWW,-0.18 ± 0.61
10,NWSSRFMTT,inactive
11,NWVLARIWW,0.755 ± 0.18
12,NWVQSSMNQ,inactive
13,NWWFPTFVRVFIYEVGLVLK,inactive
14,NWWIRGS,-0.185 ± 0.82
15,NWYLALSGLVLSPYRGIRSG,inactive
16,NYAYTVMGGTIYRLWGRVMR,inactive
17,NYCDIYQGSNIF,inactive
18,NYFGLWGCHTCITCYPVTLV,1.29 ± 0.13
19,NYKLQKHAWMNYSAHQECLF,inactive
20,NYLNTVPVPGGPMVCMQHRI,inactive
21,NYLSASVCRRRDFI,inactive
22,NYMTVRNGLIISIAPRRLRD,1.83 ± 0.085
23,NYNYNRSAHSGCPPGLEGVM,inactive

row,Substance,amyloid nucleation score
1,NYRAPMCCELFNKWVF,inactive
2,NYRPRKKVFGLR,-0.005 ± 0.88
3,NYRRGVRKPSFCL,inactive
4,NYSRFGNKKFYHP,inactive
5,NYVLPIVCL,inactive
6,NYVVRGRSQNVRNSEDNWGK,inactive
7,PAMVCNPTQATRGKSRMVPL,inactive
8,PATVNRSWNFGIRFNGARNN,-0.404 ± 0.8
9,PCHPRGKRENTMRAWGRSCE,inactive
10,PCPLRTTVW,inactive
11,PCRICINCCRRCIILLLF,inactive
12,PCSGDSLLVSNTKNRSL,inactive
13,PDSKWVFRNAALMTETCIGR,inactive
14,PEFMTVLDVTMSYWWESCLG,inactive
15,PERTPFGSNYIYFVKRTRLL,inactive
16,PFHLRVMKIRLRLPVVHLKG,inactive
17,PFNYVVRWESKLQSHYFGLY,inactive
18,PFRNMLGMNPNSQTLRVMVR,inactive
19,PFSRYPVGCLGVSPYRVISS,inactive
20,PFSWCFICKSL,inactive
21,PGDFISDEAMDSNVYFRLQS,-0.693 ± 0.8
22,PGIIGTSNSFYQCVMWQVFG,2.13 ± 0.063
23,PGIPGPQLIYRDTILTLECM,0.03 ± 0.88

row,Substance,amyloid nucleation score
1,PGIQYPSCRKLVIIYMSCL,inactive
2,PGRLSYLPHMFKYLLLITYT,inactive
3,PGRTSYMKVPYCKWSEWPAK,inactive
4,PGRYFMHLLELV,inactive
5,PHTSMDALEMSD,inactive
6,PHTWGGR,inactive
7,PIFFMIVYAVATYCKEGSHS,inactive
8,PIVRWVSSLLYVVRWLPRLA,inactive
9,PIYMYLFSTHVSNQFVKGAF,3.08 ± 0.06
10,PKCRMSMA,inactive
11,PKYALMRFRFYSGLR,inactive
12,PLAGLELCMRRRWVEE,inactive
13,PLFNRYVSF,inactive
14,PLGVRQQWEGSQVDPCGLRA,inactive
15,PLNNGHLLSMPICKIRLVKA,inactive
16,PLYVQSG,inactive
17,PMAELIWDLVLRLKLSNKKR,1.43 ± 0.074
18,PMHGGTSSQSYNNLLRRSVK,inactive
19,PNGLKTGGETRGRFYKCYMY,inactive
20,PNGREWIMKYVGDAGYRVLS,0.515 ± 0.36
21,PNKDSLWDPFKQQSRSEK,-0.455 ± 0.93
22,PNWEWIVYKMLGTFVHSWVM,inactive
23,PPCMYTMYCEYNVLQSSSKY,1.64 ± 0.082

row,Substance,amyloid nucleation score
1,PQDRFSE,1.29 ± 0.14
2,PQHLFST,inactive
3,PRCMYRLVFICGPGFRCSAG,-0.07 ± 0.47
4,PRDGERFLG,inactive
5,PRKTFVKCNRRLNSW,inactive
6,PRLAIKAHGVWVGKSFIGET,inactive
7,PRNFFLRVMHY,inactive
8,PRSEVTRTLYIFSVWHQMRI,inactive
9,PRTSKFVAVAFKV,inactive
10,PRYFSRASSKNSRF,inactive
11,PSCFLPFNCPITLVYTCSLF,2.14 ± 0.07
12,PSENKRGFPDLVFAMINSGI,inactive
13,PSFMLVVIKVTYVMADSNMR,inactive
14,PSGSVCGPHHIPHVDVSGIS,inactive
15,PSHSLSGRCHV,inactive
16,PSLRRTSLGSLKSSMANSWQ,inactive
17,PSNYWNEFYFCSSIHSCGE,3.28 ± 0.07
18,PSRNYIVELS,inactive
19,PSSFASP,inactive
20,PSSKFVGGIS,inactive
21,PTGFLLPDAGWKIYTGSLDV,inactive
22,PTGMPYNLTWFFWHATMPLL,-0.255 ± 0.33
23,PTIKDLDTSIFGYLLGSVGD,inactive

row,Substance,amyloid nucleation score
1,PTKMCCLFTVIF,2.13 ± 0.069
2,PTPMNKKRHYHVDVASPFSL,inactive
3,PTTMVPQPRPYSLRRTLAY,inactive
4,PVALLTD,inactive
5,PVAVLDG,0.654 ± 0.18
6,PVDIDPLGSFVD,inactive
7,PVLARYL,inactive
8,PVLQIIRLADRLWLDIG,inactive
9,PVLSDNYLTDFAFCYQYYMS,inactive
10,PVNFFKKFMSAMEVRYHRTK,-0.046 ± 0.38
11,PVNYVYLTRFH,inactive
12,PVQPTEARNR,inactive
13,PVYCDCSYVREGVTITITIH,inactive
14,PWFNFECL,inactive
15,PWLLVIIVLFGLYCRM,inactive
16,PWLSVSRVVVGRSLDGNNCP,inactive
17,PWPNVLLCDNDRLSFRYRSF,0.972 ± 0.1
18,PWSCISLFNFFGITPCWTLS,0.491 ± 0.67
19,PWSHSS,inactive
20,PWSLWRTVKSPRKGGEQPRS,-0.317 ± 1.1
21,PYETGRKCNA,inactive
22,PYHGSSMLKIRVRGD,inactive
23,PYKTWTINVLLWNLSCTFLN,1.49 ± 0.096
